Biological target: Recombinant Aβ1-42 (rAβ1-42 peptides) in the Thioflavin T fibril formation assay (UniProt P05067)
Experiment: cell-based or functional assay

Recombinant Aβ1-42 (rAβ1-42 peptides) in the Thioflavin T fibril formation assay, sequence (P05067 672-713 limits assumed): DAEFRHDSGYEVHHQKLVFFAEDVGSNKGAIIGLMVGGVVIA

Substance: control anti-rhodopsin 1D4 antibody (Abcam)
- T50 (time in minutes for 50% inhibition of fibril formation): 25.9 min

Reference: patent publication US20160251419A1
